{"source": "the supplement of paper PMC9170038", "data": [{"tested_on": "K4 kissing-loop RNA reporter", "assay": "apparent KD of K4 kissing-loop reporter; higher = weaker reporter binding", "conditions": "Eterna round: R107; input ligand: none", "method": "(§1)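 RNA-MaP round R107: designed RNA switches with theophylline, tryptophan, arginine or FMN aptamers are transcribed on-chip within common flanks. They are titrated with a labelled K4 kissing-loop RNA reporter in RNA-MaP buffer (100 mM Tris pH 7.5, 80 mM KCl, 4 mM MgCl2), without ligand or with the indicated ligand. Median apparent KD per design.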", "units": {"apparent KD of K4 kissing-loop reporter": "nM"}, "values": [{"sequence": "AGUAGGAAACUACAAUCCUCUCUUACUGAAGGAGCGCGUGAAAACGCAGGUAGGUCGCAGGAUUGGAGAGUGAUGUUCUCCUUAA [Ex Arginine A K4 17]", "apparent KD of K4 kissing-loop reporter": 441}, {"sequence": "AAUAAAAUCACGGCCGCCACUGAUUAGCAUAUUAGGAGUGAUGUUUCUAUGACUAUAUAAUUGAACAGGACCGGGUGAAUAUUUA [#20 K4 Tryptophan B Exclusion]", "apparent KD of K4 kissing-loop reporter": 417}, {"sequence": "GUAUCGCUAGGAGGAUAUUUCAAAUAAUAAAUAAAUGGUUAUACGGAGUGAUGUUCCGAUUUACGGAAAGAAGGCCUAGUGAUAC [FMN B 3]", "apparent KD of K4 kissing-loop reporter": 155}, {"sequence": "CUUCGUAAAGGCCCAGUGAUGUUGGGCACUCGAGGACCGGUACGGCCGCCACUCGCUCCCUAAGUCGCGCGCGUGGGCCACCGCC [Xeteoredre]", "apparent KD of K4 kissing-loop reporter": 99.4}, {"sequence": "GCAGUGAUGUUGCACGAGUAGGGUAGAGUACGAGGACCGGUACGGCCGCCACUCGUACGGAACUCGCUAAUUUAUGGAAUGGUGA [I]", "apparent KD of K4 kissing-loop reporter": 752}, {"sequence": "CGAGUGAUGUUCGUUCGUAUAUUUGGGUGACAGGAUAUGCGGAAACGCAGAAGGGUCGCCUUCGGGUUACCCGAAUUGGCGUUUU [FMN A Model 2]", "apparent KD of K4 kissing-loop reporter": 546}, {"sequence": "AUCAUAUCUAGUCAGCCCAGUGAUGUUGGGCGAGGACCGGUACGGCCGCCACUCGCUUCGUUGCGGUGGCUGGCGUUACGACAAA [Inveusma]", "apparent KD of K4 kissing-loop reporter": 150}, {"sequence": "AAUAAGGUCGCCGAUACCAGCGCAGGCAGAGCAAAGCUCUGCCAGGUAGUGAUGUUACCGCGCCCUUGGCAGCGGUGGCACGACC [Omei KL Theo B SS C v2]", "apparent KD of K4 kissing-loop reporter": 516}, {"sequence": "UUUCUACCGGGAAGGAGCGUGAAUGAUAAUGGAUAUAGUGAUGUUAUAUAUAAGAACGAAUCGCAGGUAGGUCGCCCGGAUGACU [SSArgB.S]", "apparent KD of K4 kissing-loop reporter": 352}, {"sequence": "AAAUAAAGGGCGGCCGCCACUGAUCGCCUCCGCGUGGGUAUGUAGUGAUGUUAUAUGGCCGCCAUCAGGACCGGGCCAAAUAAAA [#10 K4 Tryptophan B Same State]", "apparent KD of K4 kissing-loop reporter": 340}, {"sequence": "CGAGAAUGUCGACAGUCAUCGGUCCAUGCACGAGGACCGGUACGGCCGCCACUCGAGCGUGGCAGUGAUGUUGCCAGCGCACUAA [KL-XTryp-A14]", "apparent KD of K4 kissing-loop reporter": 86.3}, {"sequence": "AAACAUCACUGGGAGUGAUGUUCUCAGUGACGAGGACCGGUACGGCCGCCACUCGCGAGAGAUAUAGGUAAGUAAUGACAUCAUU [Excl Tryptophan A V5]", "apparent KD of K4 kissing-loop reporter": 360}, {"sequence": "UCCUAGGUCUUCAGGCGAAAGCCCUGCGAAGGAGCGUGCGAAAGCACAGGUAGGUCGCGCAGUGAUGUUGCACCUAGGUAAUAAA [#SwitchBubble 21 #K4Late]", "apparent KD of K4 kissing-loop reporter": 268}, {"sequence": "UAGCAUUUGCUCGAGUGAUGUUCGAGCGAAGGAGCGCGAGAAAUCGCAGGUAGGUCGCGCUCGAACUAUGAGCGAUCAUUUAUUA [Arg A Ex t2c]", "apparent KD of K4 kissing-loop reporter": 244}, {"sequence": "ACCCUACUCGGGCGGCUAUACAGUUAAGCUAAGGAUAUGUAUUCGUACAGAAGGUAGAAGAAGCCGAGUGAUGUUCGACACGCCC [theeternabot_sameState_KL_FMN_A_24]", "apparent KD of K4 kissing-loop reporter": 544}, {"sequence": "GGGAAGAAGGCGGCCGCCACUGCAGAAGAGACAGAGAGAGAAGAAGAGGAGUGAUGUUCCAAGAACAGGACCGGGCCAAGAAGGG [whbob_SS_Tryp_B_t28]", "apparent KD of K4 kissing-loop reporter": 102}, {"sequence": "ACUGGGUUGACGAAAGUCAACAAAAGAGAAGGAGCGCACGAAAGUGCAGGUAGGUCGCUCAUCCAGUGAUGUUGGAUCAUCCAGA [#SwitchBubble 17 #K4Late]", "apparent KD of K4 kissing-loop reporter": 626}, {"sequence": "AGUUCCGACGGAAGGAGCGGACAGUAUUGACGGAAAGGUGCAAGUGAUGUUUGCGCUUGUGUCCAGGUAGGUCGCCGUCGGAACA [Arg B SS t13]", "apparent KD of K4 kissing-loop reporter": 84.7}, {"sequence": "AGUGGACAUGUCUAGAGUGAUGUUCUGGAUACCAGACACGAAAGUGUCCCUUGGCAGCCGGAGUGAUGUUCUGGAGUUCACUAAA [Omei KL Theo A Exc B v8]", "apparent KD of K4 kissing-loop reporter": 550}, {"sequence": "UGUCGAGUGAUGUUCGAUGUGGUGCAUGCAGAGGAUAUAGGGUGGGCUAGAAGGCUGAAAAGUGCUUCGAGUGAUGUUCGAAGAU [Exclusion FMN A GF9]", "apparent KD of K4 kissing-loop reporter": 123}, {"sequence": "GCCGCCGCGGCAGGAUAUAGGUUCAUGGAGUGAUGUUCCAUAACCCGAGUGAUGUUCGUUAUCCGCCUAGAAGGGCCGCGGCGGC", "apparent KD of K4 kissing-loop reporter": 205}, {"sequence": "GCCGUACGCAUGGAUACCAGCUAUUAGAGUGAUGUUCUAUGGCCCUGCCAGAGUAGCUGUAGCCCUUGGCAGCCAUGCGUACGGC", "apparent KD of K4 kissing-loop reporter": 130}]}, {"tested_on": "K4 kissing-loop RNA reporter", "assay": "apparent KD of K4 kissing-loop reporter; higher = weaker reporter binding", "conditions": "Eterna round: R107; input ligand: theophylline 20 uM", "method": "as §1", "units": {"apparent KD of K4 kissing-loop reporter": "nM"}, "values": [{"sequence": "UGACAUUGCUCAGAUACCAGACAUGAGCAUCAGCCAUGUGCCAAAUACGUACAAAUAAAUGUCCCUUGGCAGCUGAGCAAUGUCU [TheoBX 12]", "apparent KD of K4 kissing-loop reporter": 80}, {"sequence": "GGUUUAUAGGAGGAUACCAGUACGGAUAAAGUACGUUAAUAGUAGAGUGAUGUUCUAAAGUACCCUUGGCAGCUUAGAGUGAGUU [ExTheophylB.L]", "apparent KD of K4 kissing-loop reporter": 159}, {"sequence": "AACAGCAAUGCGGCCGCCACUUCGAGGUCAGUGAUGUUGACAGAAUUAAAUAAAGAUCCCAAGAGGAGGACCGGGCAGUGCUGUU [whbob_SS_Tryp_B_t24]", "apparent KD of K4 kissing-loop reporter": 527}, {"sequence": "UUUCGGUUCUGAGGAUAUUCGGACAAAUAUAGUGAUGUUGUAUAAGGAGGAGGGUGUUGGCAGUGAGGAGAAGGCAGAAGAGGAU [ExFMNB.T]", "apparent KD of K4 kissing-loop reporter": 524}, {"sequence": "GGAUAGGACAGAGGAUAUCUCUGAGGCAAGAAAACUUGUCUCUAAGGAGAUGACUCAGUGAUGUUGAGAGAAGGCUGUCCUAUCG [FmnBX 12 - #SwitchBubble #StaticStem]", "apparent KD of K4 kissing-loop reporter": 140}]}]}
